In US11214624 (PRODA BIOTECH, dated 2022):
Blank lines part the entries; values can stand above or below the binder they belong to.

Legend:
[1] = target: T1, dynein (endogenous, in SW480 cell extracts) (UniProt O14576 2-645); assay: co-immunoprecipitation in extracts of scratch-wounded SW480 cells
T1 construct: Multi-subunit motor; also called Dynein intermediate 1

[2] = target: T2, kinesin (endogenous, in SW480 cell extracts) (UniProt P33176 2-963); assay: as above
T2 construct: also called heavy chain of kinesin-1
T2 sequence (looked up): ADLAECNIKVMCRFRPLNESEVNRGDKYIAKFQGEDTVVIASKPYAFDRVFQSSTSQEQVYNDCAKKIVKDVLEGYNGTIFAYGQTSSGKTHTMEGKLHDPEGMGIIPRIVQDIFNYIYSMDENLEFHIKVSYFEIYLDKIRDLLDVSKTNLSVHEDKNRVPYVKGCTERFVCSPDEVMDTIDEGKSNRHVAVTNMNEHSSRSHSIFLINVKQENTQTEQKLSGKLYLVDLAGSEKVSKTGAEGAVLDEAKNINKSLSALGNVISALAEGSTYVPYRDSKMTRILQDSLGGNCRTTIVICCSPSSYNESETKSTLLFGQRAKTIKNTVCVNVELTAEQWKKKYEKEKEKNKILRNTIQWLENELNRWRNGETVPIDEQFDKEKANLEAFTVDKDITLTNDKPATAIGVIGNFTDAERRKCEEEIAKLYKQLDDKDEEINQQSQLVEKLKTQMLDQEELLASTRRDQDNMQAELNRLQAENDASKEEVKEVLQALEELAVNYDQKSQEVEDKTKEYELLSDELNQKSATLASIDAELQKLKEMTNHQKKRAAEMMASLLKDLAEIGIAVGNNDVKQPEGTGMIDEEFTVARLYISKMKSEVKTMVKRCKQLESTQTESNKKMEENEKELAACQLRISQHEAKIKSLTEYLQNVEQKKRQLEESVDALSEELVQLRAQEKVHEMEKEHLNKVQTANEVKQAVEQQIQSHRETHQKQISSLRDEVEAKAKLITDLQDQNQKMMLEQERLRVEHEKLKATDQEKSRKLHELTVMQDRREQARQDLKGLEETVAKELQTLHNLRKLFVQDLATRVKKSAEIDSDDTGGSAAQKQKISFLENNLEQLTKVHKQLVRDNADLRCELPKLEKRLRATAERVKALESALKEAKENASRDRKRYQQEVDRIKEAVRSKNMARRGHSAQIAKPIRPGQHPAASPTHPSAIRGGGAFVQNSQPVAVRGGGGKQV

T1 sequence (O14576 2-645): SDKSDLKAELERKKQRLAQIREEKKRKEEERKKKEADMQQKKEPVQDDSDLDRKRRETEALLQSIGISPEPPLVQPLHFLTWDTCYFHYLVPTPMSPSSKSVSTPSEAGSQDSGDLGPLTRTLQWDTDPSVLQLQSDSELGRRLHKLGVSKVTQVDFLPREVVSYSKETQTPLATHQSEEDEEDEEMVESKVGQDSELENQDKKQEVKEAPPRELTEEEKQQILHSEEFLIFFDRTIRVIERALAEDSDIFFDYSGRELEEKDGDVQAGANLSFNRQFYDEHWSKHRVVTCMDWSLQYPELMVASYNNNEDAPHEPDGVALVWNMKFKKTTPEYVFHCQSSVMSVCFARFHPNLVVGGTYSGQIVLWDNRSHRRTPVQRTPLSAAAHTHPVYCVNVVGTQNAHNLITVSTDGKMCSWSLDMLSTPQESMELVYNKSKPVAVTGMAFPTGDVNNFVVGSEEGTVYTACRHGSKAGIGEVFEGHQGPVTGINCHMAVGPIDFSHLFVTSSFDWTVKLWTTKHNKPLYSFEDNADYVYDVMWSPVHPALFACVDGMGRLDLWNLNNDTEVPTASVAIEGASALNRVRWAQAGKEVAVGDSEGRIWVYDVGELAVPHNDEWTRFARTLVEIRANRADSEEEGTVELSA

- binding result [1]: no binding
- binding result [2]: no binding
B1: p68 RNA helicase (endogenous, in SW480 cell extracts) (enzyme)
chain: MSGYSSDRDRGRDRGFGAPRFGGSRAGPLSGKKFGNPGEKLVKKKWNLDELPKFEKNFYQEHPDLARRTAQEVETYRRSKEITVRGHNCPKPVLNFYEANFPANVMDVIARQNFTEPTAIQAQGWPVALSGLDMVGVAQTGSGKTLSYLLPAIVHINHQPFLERGDGPICLVLAPTRELAQQVQQVAAEYCRACRLKSTCIYGGAPKGPQIRDLERGVEICIATPGRLIDFLECGKTNLRRTTYLVLDEADRMLDMGFEPQIRKIVDQIRPDRQTLMWSATWPKEVRQLAEDFLKDYIHINIGALELSANHNILQIVDVCHDVEKDEKLIRLMEEIMSEKENKTIVFVETKRRCDELTRKMRRDGWPAMGIHGDKSQQERDWVLNEFKHGKAPILIATDVASRGLDVEDVKFVINYDYPNSSEDYIHRIGRTARSTKTGTAYTFFTPNNIKQVSDLISVLREANQAINPKLLQLVEDRGSGRSRGRGGMKDDRRDRYSAGKRGGFNTFRDRENYDRGYSSLLKRDFGAKTQNGVYSAANYTNGSFGSNFVSAGIQTSFRTGNPTGTYQNGYDSTQQYGSNVPNMHNGMNQQAYAYPATAAAPMIGYPMPTGYSQ
notes: Endogenous protein in lysates of SW480 cells; also called Human p68

B2: HA-tagged wild-type p68 (HA-p68), immunopurified from SW480 cell lysates (enzyme)
chain: B1 chain
notes: One construct, purified from SW480 cells either with or without scratch-wound treatment; also called HA-p68 WT; WT; not shown: hemagglutinin (HA) tag from the pHM6 vector
- binding result [1]: no binding
- binding result [2]: no binding
